Paper PMC6640053

System: Lrp (C-terminal His6 as stated; cloned NdeI/XhoI in pET28a) (Escherichia coli K-12 (strain FW102 genomic DNA))
Assay: EMSA
Settings: no effector; apparent overall Kd; four complexes B1-B4; 10 mM Tris-HCl pH 7.4, 5 mM MgCl2, 250 mM KCl, 2.5 mM CaCl2, 0.5 mM DTT, 2.5% glycerol, 37 C 25 min; L-Arg and/or L-Leu when indicated; excess sonicated …

Substance: artP control region
- Kd: 200 nM
